Data as given in patent publication US20140274782A1, “AFFINITY REAGENTS AND METHODS FOR DETECTION, PURIFICATION, AND PROTEOMIC ANALYSIS OF METHYLATED PROTEINS” (The Board of Trustees of the Leland Stanford Junior …, priority 2013, published 2014).

B1: TRMT61A (protein, UniProt Q96FX7 2-289, looked up)
tRNA …: SFVAYEELIKEGDTAILSLGHGAMVAVRVQRGAQTQTRHGVLRHSVDLIGRPFGSKVTCGRGGWVYVLHPTPELWTLNLPHRTQILYSTDIALITMMLELRPGSVVCESGTGSGSVSHAIIRTIAPTGHLHTVEFHQQRAEKAREEFQEHRVGRWVTVRTQDVCRSGFGVSHVADAVFLDIPSPWEAVGHAWDALKVEGGRFCSFSPCIEQVQRTCQALAARGFSELSTLEVLPQVYNVRTVSLPPPDLGTGTDGPAGSDTSPFRSGTPMKEAVGHTGYLTFATKTPG
B2: PABPN1 (protein, UniProt Q86U42 2-306, looked up)
Polyadenylate-binding protein …: AAAAAAAAAAGAAGGRGSGPGRRRHLVPGAGGEAGEGAPGGAGDYGNGLESEELEPEELLLEPEPEPEPEEEPPRPRAPPGAPGPGPGSGAPGSQEEEEEPGLVEGDPGDGAIEDPELEAIKARVREMEEEAEKLKELQNEVEKQMNMSPPPGNAGPVIMSIEEKMEADARSIYVGNVDYGATAEELEAHFHGCGSVNRVTILCDKFSGHPKGFAYIEFSDKESVRTSLALDESLFRGRQIKVIPKRTNRPGISTTDRGFPRARYRARTTNYNSSRSRFYSGFNSRPRGRVYRGRARATSWYSPY
B3: SEC23A (protein, UniProt Q15436 2-765, looked up)
Protein transport protein …: TTYLEFIQQNEERDGVRFSWNVWPSSRLEATRMVVPVAALFTPLKERPDLPPIQYEPVLCSRTTCRAVLNPLCQVDYRAKLWACNFCYQRNQFPPSYAGISELNQPAELLPQFSSIEYVVLRGPQMPLIFLYVVDTCMEDEDLQALKESMQMSLSLLPPTALVGLITFGRMVQVHELGCEGISKSYVFRGTKDLSAKQLQEMLGLSKVPLTQATRGPQVQQPPPSNRFLQPVQKIDMNLTDLLGELQRDPWPVPQGKRPLRSSGVALSIAVGLLECTFPNTGARIMMFIGGPATQGPGMVVGDELKTPIRSWHDIDKDNAKYVKKGTKHFEALANRAATTGHVIDIYACALDQTGLLEMKCCPNLTGGYMVMGDSFNTSLFKQTFQRVFTKDMHGQFKMGFGGTLEIKTSREIKISGAIGPCVSLNSKGPCVSENEIGTGGTCQWKICGLSPTTTLAIYFEVVNQHNAPIPQGGRGAIQFVTQYQHSSGQRRIRVTTIARNWADAQTQIQNIAASFDQEAAAILMARLAIYRAETEEGPDVLRWLDRQLIRLCQKFGEYHKDDPSSFRFSETFSLYPQFMFHLRRSSFLQVFNNSPDESSYYRHHFMRQDLTQSLIMIQPILYAYSFSGPPEPVLLDSSSILADRILLMDTFFQILIYHGETIAQWRKSGYQDMPEYENFRHLLQAPVDDAQEILHSRFPMPRYIDTEHGGSQARFLLSKVNPSQTHNNMYAWGQESGAPILTDDVSLQVFMDHLKKLAVSSAA
B4: UBAP2 (protein, UniProt Q5T6F2 1-1119, looked up)
Ubiquitin-associated protein 2: MMTSVSSDHCRGAREKPQISAAQSTQPQKQVVQATAEQMRLAQVIFDKNDSDFEAKVKQLMEVTGKNQDECIVALHDCNGDVNKAINILLEGNSDTTSWETVGCKKKNFAKENSENKENREKKSEKESSRGRGNNNRKGRGGNRGREFRGEENGIDCNQVDKPSDRGKRARGRGFGRGRGRGAGRFSTQGMGTFNPADYSDSTSTDVCGTKLVVWEAAQNGADEGTELASNTHNIAQDLSNKSSYGLKGAWKNSVEEWTTEDWTEDLSETKVFTASSAPAENHILPGQSIDLVALLQKPVPHSQASEANSFETSQQQGFGQALVFTNSQHNNQMAPGTGSSTAVNSCSPQSLSSVLGSGFGELAPPKMANITSSQILDQLKAPSLGQFTTTPSTQQNSTSHPTTTTSWDLKPPTSQSSVLSHLDFKSQPEPSPVLSQLSQRQQHQSQAVTVPPPGLESFPSQAKLRESTPGDSPSTVNKLLQLPSTTIENISVSVHQPQPKHIKLAKRRIPPASKIPASAVEMPGSADVTGLNVQFGALEFGSEPSLSEFGSAPSSENSNQIPISLYSKSLSEPLNTSLSMTSAVQNSTYTTSVITSCSLTSSSLNSASPVAMSSSYDQSSVHNRIPYQSPVSSSESAPGTIMNGHGGGRSQQTLDTPKTTGPPSALPSVSSLPSTTSCTALLPSTSQHTGDLTSSPLSQLSSSLSSHQSSLSAHAALSSSTSHTHASVESASSHQSSATFSTAATSVSSSASSGASLSSSMNTANSLCLGGTPASASSSSSRAAPLVTSGKAPPNLPQGVPPLLHNQYLVGPGGLLPAYPIYGYDELQMLQSRLPVDYYGIPFAAPTALASRDGSLANNPYPGDVTKFGRGDSASPAPATTPAQPQQSQSQTHHTAQQPFVNPALPPGYSYTGLPYYTGMPSAFQYGPTMFVPPASAKQHGVNLSTPTPPFQQASGYGQHGYSTGYDDLTQGTAAGDYSKGGYAGSSQAPNKSAGSGPGKGVSVSSSTTGLPDMTGSVYNKTQTFDKQGFHAGTPPPFSLPSVLGSTGPLASGAAPGYAPPPFLHILPAHQQPHSQLLHHHLPQDAQSGSGQRSQPSSLQPKSQASKPAYGNSPYWTN

Assays:
3×MBT domain of L3MBTL1 = assay: Triple SILAC pull-down, 3xMBT/3xMBTD355N ratio (cytoplasmic, nuclear and chromatin fractions of 293T cells); format: binding, human; details: for 3xMBT/D355N UNC Heavy: experiment with UNC0638 in heavy SILAC media; for 3xMBT/D355N UNC Light: experiment with UNC0638 in light SILAC media;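 on all read-outs here: proteins quantified with MaxQuant, requiring at least two unique peptides and quantification in both label directions, normalized to the mean of proteins from a digested loading control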
G9a and GLP = target: T1, G9a and GLP (Homo sapiens, UniProt Q96KQ7+Q9H9B1); assay: Triple SILAC pull-down after UNC0638 treatment of 293T cells, DMSO/UNC0638 ratio of protein captured by 3×MBT; format: cell-based; design: cells were treated for 24 hours with UNC0638 at 2.5 μM or DMSO vehicle control; endogenous in cells; host or cells: HEK 293T; details: for Relative to UNC0638 UNC Heavy: UNC0638 in heavy SILAC media; for Relative to UNC0638 UNC Light: UNC0638 in light SILAC media; for Relative to UNC0638 Average: average of UNC Light and UNC Heavy experiments;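 on all read-outs here: mass spectrometry (Q-Exactive) SILAC quantitation, DMSO/UNC0638 ratio computed after subtracting 3×MBTD355N mutant pull-down background, only proteins with at least twofold 3×MBT over mutant signal considered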
T1 sequence (Q96KQ7 2-1210 limits assumed): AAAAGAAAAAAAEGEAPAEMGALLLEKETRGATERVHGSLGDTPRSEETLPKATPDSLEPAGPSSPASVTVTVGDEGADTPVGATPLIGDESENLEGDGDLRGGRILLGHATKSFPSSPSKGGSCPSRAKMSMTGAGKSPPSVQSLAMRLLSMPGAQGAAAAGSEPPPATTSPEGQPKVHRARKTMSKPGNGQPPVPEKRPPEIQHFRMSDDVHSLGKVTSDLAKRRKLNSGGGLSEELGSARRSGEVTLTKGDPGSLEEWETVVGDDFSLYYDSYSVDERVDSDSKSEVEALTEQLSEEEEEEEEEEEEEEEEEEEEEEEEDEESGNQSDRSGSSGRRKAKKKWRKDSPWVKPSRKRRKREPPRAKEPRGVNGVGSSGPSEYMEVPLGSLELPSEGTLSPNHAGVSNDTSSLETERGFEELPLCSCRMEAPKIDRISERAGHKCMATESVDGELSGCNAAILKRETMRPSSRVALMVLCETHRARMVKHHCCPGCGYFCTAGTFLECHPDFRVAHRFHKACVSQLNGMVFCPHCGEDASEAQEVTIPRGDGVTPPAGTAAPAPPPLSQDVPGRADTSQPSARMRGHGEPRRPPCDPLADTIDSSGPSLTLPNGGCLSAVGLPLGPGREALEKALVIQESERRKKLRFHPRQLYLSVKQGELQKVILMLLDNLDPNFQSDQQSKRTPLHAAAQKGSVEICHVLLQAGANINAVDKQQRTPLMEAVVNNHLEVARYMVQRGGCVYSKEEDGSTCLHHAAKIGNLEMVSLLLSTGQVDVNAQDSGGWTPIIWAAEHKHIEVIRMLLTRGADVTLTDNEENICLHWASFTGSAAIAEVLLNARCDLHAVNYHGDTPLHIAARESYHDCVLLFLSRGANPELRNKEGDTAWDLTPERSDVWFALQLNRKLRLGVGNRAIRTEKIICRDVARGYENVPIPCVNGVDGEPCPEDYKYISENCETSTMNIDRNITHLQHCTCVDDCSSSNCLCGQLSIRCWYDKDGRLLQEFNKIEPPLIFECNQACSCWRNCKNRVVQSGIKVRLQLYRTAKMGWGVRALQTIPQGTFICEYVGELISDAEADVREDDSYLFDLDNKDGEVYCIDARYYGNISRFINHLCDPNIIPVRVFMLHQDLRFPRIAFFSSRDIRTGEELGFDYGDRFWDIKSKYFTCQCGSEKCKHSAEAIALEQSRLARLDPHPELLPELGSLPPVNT
T1 sequence (Q9H9B1 2-1298 limits assumed): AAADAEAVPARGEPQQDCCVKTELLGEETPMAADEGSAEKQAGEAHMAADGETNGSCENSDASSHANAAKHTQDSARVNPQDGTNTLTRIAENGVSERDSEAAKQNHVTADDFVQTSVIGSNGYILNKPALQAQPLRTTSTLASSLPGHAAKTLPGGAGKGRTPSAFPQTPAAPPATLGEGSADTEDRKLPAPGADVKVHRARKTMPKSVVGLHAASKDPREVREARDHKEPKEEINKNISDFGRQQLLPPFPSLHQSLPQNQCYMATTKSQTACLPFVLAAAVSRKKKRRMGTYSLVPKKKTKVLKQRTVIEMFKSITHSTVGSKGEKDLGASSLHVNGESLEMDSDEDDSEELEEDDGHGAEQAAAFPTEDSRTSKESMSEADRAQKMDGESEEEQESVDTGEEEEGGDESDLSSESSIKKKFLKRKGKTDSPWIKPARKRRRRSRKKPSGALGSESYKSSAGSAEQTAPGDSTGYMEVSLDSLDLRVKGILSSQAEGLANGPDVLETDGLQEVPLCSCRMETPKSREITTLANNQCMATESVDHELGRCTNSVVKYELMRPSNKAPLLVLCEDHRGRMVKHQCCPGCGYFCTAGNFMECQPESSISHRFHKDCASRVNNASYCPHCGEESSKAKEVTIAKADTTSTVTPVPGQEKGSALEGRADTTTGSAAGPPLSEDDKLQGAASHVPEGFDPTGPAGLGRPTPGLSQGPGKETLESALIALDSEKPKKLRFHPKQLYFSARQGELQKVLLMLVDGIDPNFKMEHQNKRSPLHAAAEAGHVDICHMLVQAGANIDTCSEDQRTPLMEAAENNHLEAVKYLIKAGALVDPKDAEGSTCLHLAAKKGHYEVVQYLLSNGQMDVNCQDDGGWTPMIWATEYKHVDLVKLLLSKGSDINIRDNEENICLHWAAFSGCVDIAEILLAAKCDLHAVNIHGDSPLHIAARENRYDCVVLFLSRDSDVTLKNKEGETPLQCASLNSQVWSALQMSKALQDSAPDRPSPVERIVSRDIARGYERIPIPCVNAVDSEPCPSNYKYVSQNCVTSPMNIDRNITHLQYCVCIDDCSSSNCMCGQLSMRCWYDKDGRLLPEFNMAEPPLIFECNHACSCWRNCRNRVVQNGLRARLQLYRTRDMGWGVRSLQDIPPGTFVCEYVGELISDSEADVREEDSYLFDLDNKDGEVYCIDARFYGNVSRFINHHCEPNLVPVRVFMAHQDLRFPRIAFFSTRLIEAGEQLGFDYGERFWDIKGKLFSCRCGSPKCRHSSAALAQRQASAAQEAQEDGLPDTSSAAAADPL

[1] = SILAC ratio, pull-down 3xMBT vs 3xMBTD355N
[2] = SILAC ratio DMSO/UNC0638 of protein pulled down with 3xMBT
[3] = SILAC ratio 3xMBT vs 3xMBTD355N pull-down, 293T cells, all values in log base 2
[4] = SILAC ratio DMSO relative to UNC0638, pull-down with 3xMBT, all values in log base 2

Molecule	3xMBT/D355N UNC Heavy (3×MBT domain of L3MBTL1; [1])	3xMBT/D355N UNC Light (3×MBT domain of L3MBTL1; [1])	Relative to UNC0638 UNC Heavy (G9a and GLP; [2])	Relative to UNC0638 UNC Light (G9a and GLP; [2])	Relative to UNC0638 Average (G9a and GLP)	3xMBT/D355N UNC Heavy (3×MBT domain of L3MBTL1; [3])	3xMBT/D355N UNC Light (3×MBT domain of L3MBTL1; [3])	Relative to UNC0638 UNC Heavy (G9a and GLP; [4])	Relative to UNC0638 UNC Light (G9a and GLP; [4])	Relative to UNC0638 Average (G9a and GLP; all values in log base 2)
B1	2.78 log base 2	3.82 log base 2	−0.07 log base 2	0.29 log base 2	0.11 log base 2	–	–	–	–	–
B2	3.77 log base 2	4.04 log base 2	0.21 log base 2	0.04 log base 2	0.13 log base 2	–	–	–	–	–
B3	–	–	–	–	–	2.56 log base 2	3.17 log base 2	0.22 log base 2	−0.01 log base 2	0.11 log base 2
B4	2.90 log base 2	1.92 log base 2	0.20 log base 2	0.04 log base 2	0.12 log base 2	–	–	–	–	–
